These results are taken from article PMC4333382, “RNA helicase A activity is inhibited by oncogenic transcription factor EWS-FLI1” (Nucleic Acids Research, 2015).

One series has as its system RHA (RNA helicase A). The series can be described thus: EMSA.
The target of a further series is T1, EWS-FLI1 (UniProt F1JVV7).
T1 sequence: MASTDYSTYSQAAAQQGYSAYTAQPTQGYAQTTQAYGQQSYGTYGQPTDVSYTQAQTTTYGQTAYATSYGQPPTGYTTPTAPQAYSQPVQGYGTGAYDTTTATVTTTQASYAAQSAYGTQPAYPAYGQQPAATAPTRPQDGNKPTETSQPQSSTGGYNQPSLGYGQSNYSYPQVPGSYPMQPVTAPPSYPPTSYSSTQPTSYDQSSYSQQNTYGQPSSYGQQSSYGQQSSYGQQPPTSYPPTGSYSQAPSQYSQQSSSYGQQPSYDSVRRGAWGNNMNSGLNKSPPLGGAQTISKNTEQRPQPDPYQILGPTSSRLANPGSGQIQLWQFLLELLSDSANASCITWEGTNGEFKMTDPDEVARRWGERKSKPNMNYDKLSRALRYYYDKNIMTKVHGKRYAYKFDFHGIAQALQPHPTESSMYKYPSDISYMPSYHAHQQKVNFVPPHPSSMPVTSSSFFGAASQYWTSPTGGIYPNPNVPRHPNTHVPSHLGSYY
In words: EMSA.

Series [1] addresses T2, RNA helicase A (RHA, DHX9) (Homo sapiens, UniProt Q08211).
T2 construct: full-length, N-terminal His-tag, baculovirus / Sf9 cells, nickel IMAC and heparin purified
The series can be described thus: dsRNA strand-separation gel assay. The class given is biochemical. The conditions noted are these: 2 mM nucleotide, 2 mM MgCl2, pH 7.5, dsRNA.

In series [2] the target is RNA helicase A (human) (UniProt Q08211).
Chain of RNA helicase A (human) (Q08211 whole entry): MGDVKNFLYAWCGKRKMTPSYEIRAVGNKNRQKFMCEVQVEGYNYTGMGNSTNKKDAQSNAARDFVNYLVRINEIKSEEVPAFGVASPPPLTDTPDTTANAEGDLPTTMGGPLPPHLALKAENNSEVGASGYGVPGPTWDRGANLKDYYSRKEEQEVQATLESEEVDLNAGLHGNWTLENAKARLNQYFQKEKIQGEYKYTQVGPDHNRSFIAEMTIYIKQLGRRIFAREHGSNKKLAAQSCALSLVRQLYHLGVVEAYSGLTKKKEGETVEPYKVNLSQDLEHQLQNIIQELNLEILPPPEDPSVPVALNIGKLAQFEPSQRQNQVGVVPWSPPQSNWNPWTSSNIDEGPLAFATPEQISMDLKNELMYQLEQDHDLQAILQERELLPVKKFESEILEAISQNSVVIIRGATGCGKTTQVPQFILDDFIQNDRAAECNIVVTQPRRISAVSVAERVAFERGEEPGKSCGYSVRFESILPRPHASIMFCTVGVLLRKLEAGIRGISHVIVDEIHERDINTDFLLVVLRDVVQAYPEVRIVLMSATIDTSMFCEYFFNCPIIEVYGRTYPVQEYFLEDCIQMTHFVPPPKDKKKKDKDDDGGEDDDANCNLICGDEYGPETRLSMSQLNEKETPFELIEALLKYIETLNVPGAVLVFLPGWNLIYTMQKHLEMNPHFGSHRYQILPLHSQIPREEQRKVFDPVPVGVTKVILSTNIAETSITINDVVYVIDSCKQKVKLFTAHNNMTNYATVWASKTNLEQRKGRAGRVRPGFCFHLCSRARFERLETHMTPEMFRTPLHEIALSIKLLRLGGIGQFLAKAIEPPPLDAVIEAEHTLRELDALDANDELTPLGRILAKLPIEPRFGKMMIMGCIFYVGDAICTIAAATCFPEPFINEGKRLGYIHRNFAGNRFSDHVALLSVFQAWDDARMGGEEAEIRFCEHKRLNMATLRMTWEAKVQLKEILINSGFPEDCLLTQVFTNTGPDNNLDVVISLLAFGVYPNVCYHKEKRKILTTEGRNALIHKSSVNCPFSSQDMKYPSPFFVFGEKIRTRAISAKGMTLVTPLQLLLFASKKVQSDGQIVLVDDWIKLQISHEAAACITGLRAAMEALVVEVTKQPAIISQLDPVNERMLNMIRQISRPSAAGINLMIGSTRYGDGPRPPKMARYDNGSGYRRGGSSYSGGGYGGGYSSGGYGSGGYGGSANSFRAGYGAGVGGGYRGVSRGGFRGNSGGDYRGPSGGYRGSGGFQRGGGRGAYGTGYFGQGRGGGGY
For series [3] the target is unchanged. The source holds these as a separate data set.
Series [4] shares this target. The series can be described thus: SPR; RHA amine-coupled to a CM5 chip (~1800 RU); EWS-FLI1 as analyte at 24 to 0.375 nM; HBS-P with 1-mM TCEP, 2-mM MgCl2, 0.1-M imidazole, pH 7.4; flow 100 ul/min, contact 60 s, dissociation 600 s; sample compartment at 10°C; 1:1 Langmuir model; Biacore T-200. Background: Surface plasmon resonance follows binding to a sensor surface in real time, without labels.

T2 sequence (Q08211 whole entry): as above

The compound “350-nt partially double-stranded HDV RNA” had a Kd with RHA (RNA helicase A) of 4.7 nM. In the series with EWS-FLI1, this compound returned a Kd of 30 nM and a binding signal (fold decrease in affinity) of 3.

Take `Nc1ncnc2c1ncn2[C@@H]1O[C@H](COP(=O)(O)OP(=O)(O)OP(=O)(O)O)[C@@H](O)[C@H]1O` [ATP]: the “dsRNA strand-separation gel assay” value in series [1] is “Our purified RHA utilizes ATP, CTP, Uridine triphosphate (UTP) and Guanosine triphosphate (GTP)”.

With `Nc1ccn([C@@H]2O[C@H](COP(=O)(O)OP(=O)(O)OP(=O)(O)O)[C@@H](O)[C@H]2O)c(=O)n1` [CTP], the “dsRNA strand-separation gel assay” value in series [1] was “Our purified RHA utilizes ATP, CTP, Uridine triphosphate (UTP) and Guanosine triphosphate (GTP)”.

Consider EWS-FLI1, for which the helicase activity of 1-nM RHA in the presence of 1-nM EWS-FLI1 with racemic YK-4-279 or (S)-YK-4-279 (30 uM) in the series with RNA helicase A (human) [2] amounted to 80%. For the same compound, the reduction of the initial velocity of RHA helicase activity (dsRNA strand separation), 1-nM RHA with 0.5 to 10 nM EWS-FLI1 (58% reduction at 1 nM) with RNA helicase A (human) [3] came to 78%. In the series with RNA helicase A (human) [4], this compound yielded a Kd of 14 nM, a koff of 0.03 s⁻¹ and a kon of 3.5e+06 M⁻¹ s⁻¹.

As usually defined, the Kd is the constant that tells how readily two partners part at equilibrium. The term koff denotes the rate constant with which the complex falls apart. The low end stands for a long-lived complex, the high end for a short-lived complex. Usually kon stands for a measure of how fast the partners come together.
